# B1: 14-3-3 protein sigma (Homo sapiens), P31947 (parent)
# chain: MERASLIQKAKLAEQAERYEDMAAFMKGAVEKGEELSCEERNLLSVAYKNVVGGQRAAWRVLSSIEQKSNEEGSEEKGPEVREYREKVETELQGVCDTVLGLLDSHLIKEAGDAESRVFYLKMKGDYYRYLAEVATGDDKKRIIDSARSAYQEAMDISKKEMPPTNPIRLGLALNFSVFHYEIANSPEEAISLAKTTFDEAMADLHTLSEDSYKDSTLIMQLLRDNLTLWTADNAGEEGGEAPQEPQS
# Variants of: B1
# Settings: with pak5_human PAK5, Q9P286
# pak5_human PAK5, Q9P286, sequence (Q9P286 whole entry, looked up): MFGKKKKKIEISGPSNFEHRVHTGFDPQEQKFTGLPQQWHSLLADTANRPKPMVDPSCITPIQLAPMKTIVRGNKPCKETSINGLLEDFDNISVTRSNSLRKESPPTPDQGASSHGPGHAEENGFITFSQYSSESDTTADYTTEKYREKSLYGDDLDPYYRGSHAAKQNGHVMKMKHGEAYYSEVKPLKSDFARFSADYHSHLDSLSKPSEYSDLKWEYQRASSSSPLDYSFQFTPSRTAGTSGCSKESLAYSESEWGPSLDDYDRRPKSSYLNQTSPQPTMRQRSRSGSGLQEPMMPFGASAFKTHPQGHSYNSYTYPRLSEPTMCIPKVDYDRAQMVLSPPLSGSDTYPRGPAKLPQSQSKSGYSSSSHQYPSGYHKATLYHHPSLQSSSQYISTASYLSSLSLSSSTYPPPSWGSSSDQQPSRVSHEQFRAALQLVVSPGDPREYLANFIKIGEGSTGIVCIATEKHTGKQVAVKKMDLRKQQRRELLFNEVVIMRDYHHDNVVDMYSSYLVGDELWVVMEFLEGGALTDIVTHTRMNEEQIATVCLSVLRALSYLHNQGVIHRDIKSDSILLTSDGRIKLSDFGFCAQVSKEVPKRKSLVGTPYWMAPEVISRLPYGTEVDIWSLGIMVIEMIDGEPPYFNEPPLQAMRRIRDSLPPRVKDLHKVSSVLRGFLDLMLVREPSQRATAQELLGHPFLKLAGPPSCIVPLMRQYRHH
row,Variant,effect of a mutation on the interaction
1,K49E;R56E;V178D,decreasing interaction strength

# Variants of: B1
# Settings: with cdk16_human CDK16, Q00536
row,Variant,effect of a mutation on the interaction
1,K49E;R56E;V178D,decreasing interaction strength

# Variants of: B1
# Settings: with sik1_human SIK1, P57059
row,Variant,effect of a mutation on the interaction
1,K49E;R56E;V178D,decreasing interaction strength

# Variants of: B1
# Settings: with mark3_human MARK3, P27448
row,Variant,effect of a mutation on the interaction
1,K49E;R56E;V178D,decreasing interaction strength

# Variants of: B1
# Settings: with plk1_human PLK1, P53350
# plk1_human PLK1, P53350, sequence (P53350 whole entry): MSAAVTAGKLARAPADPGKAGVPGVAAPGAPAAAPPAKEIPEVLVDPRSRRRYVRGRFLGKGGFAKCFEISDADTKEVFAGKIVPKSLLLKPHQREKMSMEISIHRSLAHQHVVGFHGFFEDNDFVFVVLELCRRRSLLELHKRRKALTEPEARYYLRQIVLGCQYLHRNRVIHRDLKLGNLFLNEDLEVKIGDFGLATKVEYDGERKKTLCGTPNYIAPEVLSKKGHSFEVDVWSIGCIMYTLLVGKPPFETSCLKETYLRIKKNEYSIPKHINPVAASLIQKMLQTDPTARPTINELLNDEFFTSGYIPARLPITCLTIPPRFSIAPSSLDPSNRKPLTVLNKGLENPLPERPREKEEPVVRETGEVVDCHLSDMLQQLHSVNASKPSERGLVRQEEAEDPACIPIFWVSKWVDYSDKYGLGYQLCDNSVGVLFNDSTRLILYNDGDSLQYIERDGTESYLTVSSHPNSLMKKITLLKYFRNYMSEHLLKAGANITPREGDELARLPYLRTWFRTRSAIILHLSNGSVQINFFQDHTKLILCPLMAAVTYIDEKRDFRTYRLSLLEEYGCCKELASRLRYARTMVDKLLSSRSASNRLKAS
row,Variant,effect of a mutation on the interaction
1,K49E;R56E;V178D,decreasing interaction strength

# Variants of: B1
# Settings: with cd28_human CD28, P10747
row,Variant,effect of a mutation on the interaction
1,K49E;R56E;V178D,decreasing interaction strength

# Variants of: B1
# Settings: with srs10_human SRSF10, O75494
row,Variant,effect of a mutation on the interaction
1,K49E;R56E;V178D,decreasing interaction strength

# Variants of: B1
# Settings: with pabp1_human PABPC1, P11940
row,Variant,effect of a mutation on the interaction
1,K49E;R56E;V178D,decreasing interaction strength

# Variants of: B1
# Settings: with foxo3_human FOXO3, O43524
row,Variant,effect of a mutation on the interaction
1,K49E;R56E;V178D,decreasing interaction strength

# Variants of: B1
# Settings: with hdac4_human HDAC4, P56524
# hdac4_human HDAC4, P56524, sequence (P56524 whole entry): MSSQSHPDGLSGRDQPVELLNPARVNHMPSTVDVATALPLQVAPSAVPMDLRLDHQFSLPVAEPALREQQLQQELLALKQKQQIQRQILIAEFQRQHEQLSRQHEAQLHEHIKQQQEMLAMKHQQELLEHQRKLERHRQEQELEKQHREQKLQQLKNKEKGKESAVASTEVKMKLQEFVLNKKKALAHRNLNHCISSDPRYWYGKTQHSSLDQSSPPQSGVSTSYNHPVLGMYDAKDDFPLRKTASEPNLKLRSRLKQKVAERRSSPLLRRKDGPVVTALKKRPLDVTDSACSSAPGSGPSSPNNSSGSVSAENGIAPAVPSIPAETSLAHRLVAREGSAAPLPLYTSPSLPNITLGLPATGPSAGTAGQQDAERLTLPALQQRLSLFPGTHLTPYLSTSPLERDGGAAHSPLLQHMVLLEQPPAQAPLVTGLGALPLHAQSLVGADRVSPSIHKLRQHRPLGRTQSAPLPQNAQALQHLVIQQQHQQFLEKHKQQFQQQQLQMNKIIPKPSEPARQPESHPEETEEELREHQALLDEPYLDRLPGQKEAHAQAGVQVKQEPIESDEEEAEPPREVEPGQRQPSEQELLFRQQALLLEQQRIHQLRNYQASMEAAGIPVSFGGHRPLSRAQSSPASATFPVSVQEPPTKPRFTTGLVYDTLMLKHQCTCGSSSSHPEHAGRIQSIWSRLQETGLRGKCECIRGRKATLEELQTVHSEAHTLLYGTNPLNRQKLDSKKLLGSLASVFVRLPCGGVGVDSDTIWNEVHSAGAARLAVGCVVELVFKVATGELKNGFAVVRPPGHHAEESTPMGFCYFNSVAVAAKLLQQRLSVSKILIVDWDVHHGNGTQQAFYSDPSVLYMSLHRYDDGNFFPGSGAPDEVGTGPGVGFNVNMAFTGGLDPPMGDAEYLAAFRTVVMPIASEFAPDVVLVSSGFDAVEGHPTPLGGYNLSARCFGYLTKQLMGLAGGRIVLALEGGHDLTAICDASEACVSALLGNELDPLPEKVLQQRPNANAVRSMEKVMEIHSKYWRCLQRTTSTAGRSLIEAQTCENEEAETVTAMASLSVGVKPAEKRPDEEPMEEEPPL
row,Variant,effect of a mutation on the interaction
1,K49E;R56E;V178D,decreasing interaction strength

# Variants of: B1
# Settings: with wdr62_human WDR62, O43379
row,Variant,effect of a mutation on the interaction
1,K49E;R56E;V178D,decreasing interaction strength

# Variants of: B1
# Settings: with pml_human PML
row,Variant,effect of a mutation on the interaction
1,K49E;R56E;V178D,decreasing interaction strength

# Variants of: B1
# Settings: with wwp2_human WWP2, O00308
row,Variant,effect of a mutation on the interaction
1,K49E;R56E;V178D,decreasing interaction strength

# Variants of: B1
# Settings: with trim9_human TRIM9, Q9C026
row,Variant,effect of a mutation on the interaction
1,K49E;R56E;V178D,decreasing interaction strength

# Variants of: B1
# Settings: with kctd8_human KCTD8, Q6ZWB6
# kctd8_human KCTD8, Q6ZWB6, sequence (Q6ZWB6 whole entry): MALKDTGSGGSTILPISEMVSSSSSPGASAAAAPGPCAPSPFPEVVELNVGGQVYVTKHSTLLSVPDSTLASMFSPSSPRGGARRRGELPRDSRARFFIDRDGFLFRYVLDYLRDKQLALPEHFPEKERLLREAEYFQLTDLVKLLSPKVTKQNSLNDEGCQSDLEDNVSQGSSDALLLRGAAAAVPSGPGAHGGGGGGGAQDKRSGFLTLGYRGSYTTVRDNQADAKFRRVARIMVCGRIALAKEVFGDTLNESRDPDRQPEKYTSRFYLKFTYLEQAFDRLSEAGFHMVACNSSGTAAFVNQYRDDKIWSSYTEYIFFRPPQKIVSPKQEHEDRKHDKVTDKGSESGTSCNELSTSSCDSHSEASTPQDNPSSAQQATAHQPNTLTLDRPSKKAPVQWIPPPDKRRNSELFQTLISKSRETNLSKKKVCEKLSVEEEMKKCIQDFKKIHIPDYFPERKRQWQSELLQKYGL
row,Variant,effect of a mutation on the interaction
1,K49E;R56E;V178D,decreasing interaction strength

# Variants of: B1
# Settings: with nedd4_human NEDD4, P46934
row,Variant,effect of a mutation on the interaction
1,K49E;R56E;V178D,decreasing interaction strength

# Variants of: B1
# Settings: with dtl_human DTL
row,Variant,effect of a mutation on the interaction
1,K49E;R56E;V178D,decreasing interaction strength

# Variants of: B1
# Settings: with cbl_human CBL
row,Variant,effect of a mutation on the interaction
1,K49E;R56E;V178D,decreasing interaction strength

# Variants of: B1
# Settings: with kcna7_human KCNA7, Q96RP8
row,Variant,effect of a mutation on the interaction
1,K49E;R56E;V178D,decreasing interaction strength

# Variants of: B1
# Settings: with shkb1_human SHKBP1, Q8TBC3
row,Variant,effect of a mutation on the interaction
1,K49E;R56E;V178D,decreasing interaction strength

# Variants of: B1
# Settings: with abtb2_human ABTB2, Q8N961
row,Variant,effect of a mutation on the interaction
1,K49E;R56E;V178D,decreasing interaction strength

# Variants of: B1
# Settings: with ned4l_human NEDD4L
row,Variant,effect of a mutation on the interaction
1,K49E;R56E;V178D,decreasing interaction strength

# Variants of: B1
# Settings: with sh3r1_human SH3RF1, Q7Z6J0
row,Variant,effect of a mutation on the interaction
1,K49E;R56E;V178D,decreasing interaction strength

# Variants of: B1
# Settings: with braf_human BRAF
row,Variant,effect of a mutation on the interaction
1,K49E;R56E;V178D,decreasing interaction strength

# Variants of: B1
# Settings: with FAM110B
row,Variant,effect of a mutation on the interaction
1,K49E;R56E;V178D,decreasing interaction strength

# Variants of: B1
# Settings: with iscu_human ISCU
row,Variant,effect of a mutation on the interaction
1,K49E;R56E;V178D,decreasing interaction strength

# Variants of: B1
# Settings: with foxo4_human FOXO4, P98177
row,Variant,effect of a mutation on the interaction
1,K49E;R56E;V178D,decreasing interaction strength

# Variants of: B1
# Settings: with klc4_human KLC4, Q9NSK0
row,Variant,effect of a mutation on the interaction
1,K49E;R56E;V178D,decreasing interaction strength

# Variants of: B1
# Settings: with larp1_human LARP1, Q6PKG0
row,Variant,effect of a mutation on the interaction
1,K49E;R56E;V178D,decreasing interaction strength

# Variants of: B1
# Settings: with klc3_human KLC3, Q6P597
# klc3_human KLC3, Q6P597, sequence (Q6P597 whole entry): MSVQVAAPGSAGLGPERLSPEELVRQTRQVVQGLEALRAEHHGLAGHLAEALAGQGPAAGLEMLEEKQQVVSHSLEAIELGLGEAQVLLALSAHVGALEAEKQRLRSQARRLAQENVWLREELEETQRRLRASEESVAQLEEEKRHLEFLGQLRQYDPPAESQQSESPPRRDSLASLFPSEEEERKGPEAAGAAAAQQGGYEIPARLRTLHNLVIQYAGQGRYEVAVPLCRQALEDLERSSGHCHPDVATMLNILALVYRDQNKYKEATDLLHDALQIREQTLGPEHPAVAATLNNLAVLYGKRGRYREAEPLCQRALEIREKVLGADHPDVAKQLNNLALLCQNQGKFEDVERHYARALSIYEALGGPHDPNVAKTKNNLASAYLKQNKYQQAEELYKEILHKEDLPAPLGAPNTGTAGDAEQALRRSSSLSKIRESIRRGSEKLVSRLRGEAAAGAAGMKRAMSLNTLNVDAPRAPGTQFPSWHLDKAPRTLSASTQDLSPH
row,Variant,effect of a mutation on the interaction
1,K49E;R56E;V178D,decreasing interaction strength

# Variants of: B1
# Settings: with dnjb1_human DNAJB1, P25685
row,Variant,effect of a mutation on the interaction
1,K49E;R56E;V178D,decreasing interaction strength

# Variants of: B1
# Settings: with wee1_human WEE1, P30291
row,Variant,effect of a mutation on the interaction
1,K49E;R56E;V178D,decreasing interaction strength

# Variants of: B1
# Settings: with grip1_human GRIP1, Q9Y3R0
row,Variant,effect of a mutation on the interaction
1,K49E;R56E;V178D,decreasing interaction strength

# Variants of: B1
# Settings: with KIAA0930, Q6ICG6
row,Variant,effect of a mutation on the interaction
1,K49E;R56E;V178D,decreasing interaction strength

# Variants of: B1
# Settings: with ablm1_human ABLIM1, O14639
row,Variant,effect of a mutation on the interaction
1,K49E;R56E;V178D,decreasing interaction strength

# Variants of: B1
# Settings: with baip2_human BAIAP2, Q9UQB8
row,Variant,effect of a mutation on the interaction
1,K49E;R56E;V178D,decreasing interaction strength

# Variants of: B1
# Settings: with nav1_human NAV1, Q8NEY1
row,Variant,effect of a mutation on the interaction
1,K49E;R56E;V178D,decreasing interaction strength

# Variants of: B1
# Settings: with pcm1_human PCM1, Q15154
row,Variant,effect of a mutation on the interaction
1,K49E;R56E;V178D,decreasing interaction strength

# Variants of: B1
# Settings: with EPB41L2, O43491
row,Variant,effect of a mutation on the interaction
1,K49E;R56E;V178D,decreasing interaction strength

# Variants of: B1
# Settings: with kif1b_human KIF1B
row,Variant,effect of a mutation on the interaction
1,K49E;R56E;V178D,decreasing interaction strength

# Variants of: B1
# Settings: with clap1_human CLASP1, Q7Z460
# clap1_human CLASP1, Q7Z460, sequence (Q7Z460 whole entry): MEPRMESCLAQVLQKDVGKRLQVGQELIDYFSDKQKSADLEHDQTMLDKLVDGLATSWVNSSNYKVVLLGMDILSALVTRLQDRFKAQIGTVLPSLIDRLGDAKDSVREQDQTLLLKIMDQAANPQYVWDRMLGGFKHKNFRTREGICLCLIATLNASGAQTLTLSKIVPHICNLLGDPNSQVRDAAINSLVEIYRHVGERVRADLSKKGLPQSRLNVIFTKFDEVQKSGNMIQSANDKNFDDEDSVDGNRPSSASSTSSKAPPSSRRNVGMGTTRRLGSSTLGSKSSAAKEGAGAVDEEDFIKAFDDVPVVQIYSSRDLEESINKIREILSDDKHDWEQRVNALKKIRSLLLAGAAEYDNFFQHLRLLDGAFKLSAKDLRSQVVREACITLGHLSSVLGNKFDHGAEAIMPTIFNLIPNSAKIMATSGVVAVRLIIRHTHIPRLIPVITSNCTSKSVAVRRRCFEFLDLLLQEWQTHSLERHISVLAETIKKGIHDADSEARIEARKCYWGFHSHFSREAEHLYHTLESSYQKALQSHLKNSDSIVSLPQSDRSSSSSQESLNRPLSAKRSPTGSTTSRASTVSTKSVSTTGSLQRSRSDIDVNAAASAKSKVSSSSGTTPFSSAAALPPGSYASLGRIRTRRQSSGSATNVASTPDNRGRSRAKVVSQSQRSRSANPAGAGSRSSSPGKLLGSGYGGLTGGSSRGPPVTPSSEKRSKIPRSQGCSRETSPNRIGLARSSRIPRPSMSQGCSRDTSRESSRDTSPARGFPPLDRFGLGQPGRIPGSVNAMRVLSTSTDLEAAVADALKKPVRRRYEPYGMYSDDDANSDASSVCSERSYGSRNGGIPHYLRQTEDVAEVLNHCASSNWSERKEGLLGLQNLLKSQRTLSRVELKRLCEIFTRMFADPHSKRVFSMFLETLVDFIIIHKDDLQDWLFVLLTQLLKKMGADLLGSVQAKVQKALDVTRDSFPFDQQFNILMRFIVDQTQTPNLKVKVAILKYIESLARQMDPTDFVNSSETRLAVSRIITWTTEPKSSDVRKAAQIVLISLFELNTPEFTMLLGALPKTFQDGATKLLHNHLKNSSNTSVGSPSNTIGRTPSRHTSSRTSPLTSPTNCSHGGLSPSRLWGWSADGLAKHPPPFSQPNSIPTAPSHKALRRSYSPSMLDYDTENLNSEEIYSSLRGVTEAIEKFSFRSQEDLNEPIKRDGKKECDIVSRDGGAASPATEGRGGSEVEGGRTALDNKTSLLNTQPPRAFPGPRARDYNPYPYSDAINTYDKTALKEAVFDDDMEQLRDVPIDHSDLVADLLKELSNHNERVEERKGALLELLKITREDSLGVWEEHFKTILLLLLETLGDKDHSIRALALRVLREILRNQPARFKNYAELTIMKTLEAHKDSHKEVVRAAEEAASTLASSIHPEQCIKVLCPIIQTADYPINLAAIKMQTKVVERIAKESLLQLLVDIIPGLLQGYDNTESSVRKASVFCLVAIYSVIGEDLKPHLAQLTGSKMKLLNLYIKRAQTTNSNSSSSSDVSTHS
row,Variant,effect of a mutation on the interaction
1,K49E;R56E;V178D,decreasing interaction strength

# Variants of: B1
# Settings: with pum1_human PUM1, Q14671
row,Variant,effect of a mutation on the interaction
1,K49E;R56E;V178D,decreasing interaction strength

# Variants of: B1
# Settings: with klc2_human KLC2, Q9H0B6
row,Variant,effect of a mutation on the interaction
1,K49E;R56E;V178D,decreasing interaction strength

# Variants of: B1
# Settings: with foxo1_human FOXO1, Q12778
row,Variant,effect of a mutation on the interaction
1,K49E;R56E;V178D,decreasing interaction strength

# Variants of: B1
# Settings: with irs1_human IRS1, P35568
row,Variant,effect of a mutation on the interaction
1,K49E;R56E;V178D,decreasing interaction strength

# Variants of: B1
# Settings: with atat_human ATAT1, Q5SQI0
row,Variant,effect of a mutation on the interaction
1,K49E;R56E;V178D,decreasing interaction strength

# Variants of: B1
# Settings: with 1433e_human YWHAE
row,Variant,effect of a mutation on the interaction
1,K49E;R56E;V178D,decreasing interaction strength
